Reference: patent US20090099029

B1: TEC (protein)
chain: MNFNTILEEILIKRSQQKKKTSPLNYKERLFVLTKSMLTYYEGRAEKKYRKGFIDVSKIKCVEIVKNDDGVIPCQNKYPFQVVHDANTLYIFAPSPQSRDLWVKKLKEEIKNNNNIMIKYHPKFWTDGSYQCCRQTEKLAPGCEKYNLFESSIRKALPPAPETKKRRPPPPIPLEEEDNSEEIVVAMYDFQAAEGHDLRLERGQEYLILEKNDVHWWRARDKYGNEGYIPSNYVTGKKSNNLDQYEWYCRNMNRSKAEQLLRSEDKEGGFMVRDSSQPGLYTVSLYTKFGGEGSSGFRHYHIKETTTSPKKYYLAEKHAFGSIPEIIEYHKHNAAGLVTRLRYPVSVKGKNAPTTAGFSYEKWEINPSELTFMRELGSGLFGVVRLGKWRAQYKVAIKAIREGAMCEEDFIEEAKVMMKLTHPKLVQLYGVCTQQKPIYIVTEFMERGCLLNFLRQRQGHFSRDVLLSMCQDVCEGMEYLERNSFIHRDLAARNCLVSEAGVVKVSDFGMARYVLDDQYTSSSGAKFPVKWCPPEVFNYSRFSSKSDVWSFGVLMWEVFTEGRMPFEKYTNYEVVTMVTRGHRLYQPKLASNYVYEVMLRCWQEKPEGRPSFEDLLRTIDELVECEETFGR
B2: EPHA1 (protein)
chain: RSRRAQRQRQQRQRDRATDVDREDKLWLKPYVDLQAYEDPAQGALDFTRELDPAWLMVDTVIGEGEFGEVYRGTLRLPSQDCKTVAIKTLKDTSPGGQWWNFLREATIMGQFSHPHILHLEGVVTKRKPIMIITEFMENGALDAFLREREDQLVPGQLVAMLQGIASGMNYLSNHNYVHRDLAARNILVNQNLCCKVSDFGLTRLLDDFDGTYETQGGKIPIRWTAPEAIAHRIFTTASDVWSFGIVMWEVLSFGDKPYGEMSNQEVMKSIEDGYRLPPPVDCPAPLYELMKNCWAYDRARRPHFQKLQAHLEQLLANPHSLRTIANFDPRMTLRLPSLSGSDGIPYRTVSEWLESIRMKRYILHFHSAGLDTMECVLELTAEDLTQMGITLPGHQKRILCSIQGFKD
B3: AKT2 (protein)
chain: MNEVSVIKEGWLHKRGEYIKTWRPRYFLLKSDGSFIGYKERPEAPDQTLPPLNNFSVAECQLMKTERPRPNTFVIRCLQWTTVIERTFHVDSPDEREEWMRAIQMVANSLKQRAPGEDPMDYKCGSPSDSSTTEEMEVAVSKARAKVTMNDFDYLKLLGKGTFGKVILVREKATGRYYAMKILRKEVIIAKDEVAHTVTESRVLQNTRHPFLTALKYAFQTHDRLCFVMEYANGGELFFHLSRERVFTEERARFYGAEIVSALEYLHSRDVVYRDIKLENLMLDKDGHIKITDFGLCKEGISDGATMKTFCGTPEYLAPEVLEDNDYGRAVDWWGLGVVMYEMMCGRLPFYNQDHERLFELILMEEIRFPRTLSPEAKSLLAGLLKKDPKQRLGGGPSDAKEVMEHRFFLSINWQDVVQKKLLPPFKPQVTSEVDTRYFDDEFTAQSITITPPDRYDSLGLLELDQRTHFPQFSYSASIRE
B4: CHEK1 (protein)
chain: MAVPFVEDWDLVQTLGEGAYGEVQLAVNRVTEEAVAVKIVDMKRAVDCPENIKKEICINKMLNHENVVKFYGHRREGNIQYLFLEYCSGGELFDRIEPDIGMPEPDAQRFFHQLMAGVVYLHGIGITHRDIKPENLLLDERDNLKISDFGLATVFRYNNRERLLNKMCGTLPYVAPELLKRREFHAEPVDVWSCGIVLTAMLAGELPWDQPSDSCQEYSDWKEKKTYLNPWKKIDSAPLALLHKILVENPSARITIPDIKKDRWYNKPLKKGAKRPRVTSGGVSESPSGFSKHIQSNLDFSPVNSASSEENVKYSSSQPEPRTGLSLWDTSPSYIDKLVQGISFSQPTCPDHMLLNSQLLGTPGSSQNPWQRLVKRMTRFFTKLDADKSYQCLKETCEKLGYQWKKSCMNQVTISTTDRRNNKLIFKVNLLEMDDKILVDFRLSKGDGLEFKRHFLKIKGKLIDIVSSQKIWLPAT
B5: AKT3 (protein)
chain: MSDVTIVKEGWVQKRGEYIKNWRPRYFLLKTDGSFIGYKEKPQDVDLPYPLNNFSVAKCQLMKTERPKPNTFIIRCLQWTTVIERTFHVDTPEEREEWTEAIQAVADRLQRQEEERMNCSPTSQIDNIGEEEMDASTTHHKRKTMNDFDYLKLLGKGTFGKVILVREKASGKYYAMKILKKEVIIAKDEVAHTLTESRVLKNTRHPFLTSLKYSFQTKDRLCFVMEYVNGGELFFHLSRERVFSEDRTRFYGAEIVSALDYLHSGKIVYRDLKLENLMLDKDGHIKITDFGLCKEGITDAATMKTFCGTPEYLAPEVLEDNDYGRAVDWWGLGVVMYEMMCGRLPFYNQDHEKLFELILMEDIKFPRTLSSDAKSLLSGLLIKDPNKRLGGGPDDAKEIMRHSFFSGVNWQDVYDKKLVPPFKPQVTSETDTRYFDEEFTAQTITITPPEKYDEDGMDCMDNERRPHFPQFSYSASGRE
B6: STK6(AuroraA) (protein)
chain: MDRSKENCISGPVKATAPVGGPKRVLVTQQFPCQNPLPVNSGQAQRVLCPSNSSQRIPLQAQKLVSSHKPVQNQKQKQLQATSVPHPVSRPLNNTQKSKQPLPSAPENNPEEELASKQKNEESKKRQWALEDFEIGRPLGKGKFGNVYLAREKQSKFILALKVLFKAQLEKAGVEHQLRREVEIQSHLRHPNILRLYGYFHDATRVYLILEYAPLGTVYRELQKLSKFDEQRTATYITELANALSYCHSKRVIHRDIKPENLLLGSAGELKIADFGWSVHAPSSRRTTLCGTLDYLPPEMIEGRMHDEKVDLWSLGVLCYEFLVGKPPFEANTYQETYKRISRVEFTFPDFVTEGARDLISRLLKHNPSQRPMLREVLEHPWITANSSKPSNCQNKESASKQS
B7: ADRBK1(GRK2) (protein)
chain: MADLEAVLADVSYLMAMEKSKATPAARASKKILLPEPSIRSVMQKYLEDRGEVTFEKIFSQKLGYLLFRDFCLNHLEEARPLVEFYEEIKKYEKLETEEERVARSREIFDSYIMKELLACSHPFSKSATEHVQGHLGKKQVPPDLFQPYIEEICQNLRGDVFQKFIESDKFTRFCQWKNVELNIHLTMNDFSVHRIIGRGGFGEVYGCRKADTGKMYAMKCLDKKRIKMKQGETLALNERIMLSLVSTGDCPFIVCMSYAFHTPDKLSFILDLMNGGDLHYHLSQHGVFSEADMRFYAAEIILGLEHMHNRFVVYRDLKPANILLDEHGHVRISDLGLACDFSKKKPHASVGTHGYMAPEVLQKGVAYDSSADWFSLGCMLFKLLRGHSPFRQHKTKDKHEIDRMTLTMAVELPDSFSPELRSLLEGLLQRDVNRRLGCLGRGAQEVKESPFFRSLDWQMVFLQKYPPPLIPPRGEVNAADAFDIGSFDEEDTKGIKLLDSDQELYRNFPLTISERWQQEVAETVFDTINAETDRLEARKKAKNKQLGHEEDYALGKDCIMHGYMSKMGNPFLTQWQRRYFYLFPNRLEWRGEGEAPQSLLTMEEIQSVEETQIKERKCLLLKIRGGKQFILQCDSDPELVQWKKELRDAYREAQQLVQRVPKMKNKPRSPVVELSKVPLVQRGSANGL
B8: PTK2(FAK) (protein)
chain: MAAAYLDPNLNHTPNSSTKTHLGTGMERSPGAMERVLKVFHYFESNSEPTTWASIIRHGDATDVRGIIQKIVDSHKVKHVACYGFRLSHLRSEEVHWLHVDMGVSSVREKYELAHPPEEWKYELRIRYLPKGFLNQFTEDKPTLNFFYQQVKSDYMLEIADQVDQEIALKLGCLEIRRSYWEMRGNALEKKSNYEVLEKDVGLKRFFPKSLLDSVKAKTLRKLIQQTFRQFANLNREESILKFFEILSPVYRFDKECFKCALGSSWIISVELAIGPEEGISYLTDKGCNPTHLADFTQVQTIQYSNSEDKDRKGMLQLKIAGAPEPLTVTAPSLTIAENMADLIDGYCRLVNGTSQSFIIRPQKEGERALPSIPKLANSEKQGMRTHAVSVSETDDYAEIIDEEDTYTMPSTRDYEIQRERIELGRCIGEGQFGDVHQGIYMSPENPALAVAIKTCKNCTSDSVREKFLQEALTMRQFDHPHIVKLIGVITENPVWIIMELCTLGELRSFLQVRKYSLDLASLILYAYQLSTALAYLESKRFVHRDIAARNVLVSSNDCVKLGDFGLSRYMEDSTYYKASKGKLPIKWMAPESINFRRFTSASDVWMFGVCMWEILMHGVKPFQGVKNNDVIGRIENGERLPMPPNCPPTLYSLMTKCWAYDPSRRPRFTELKAQLSTILEEEKAQQEERMRMESRRQATVSWDSGGSDEAPPKPSRPGYPSPRSSEGFYPSPQHMVQTNHYQVSGYPGSHGITAMAGSIYPGQASLLDQTDSWNHRPQEIAMWQPNVEDSTVLDLRGIGQVLPTHLMEERLIRQQQEMEEDQRWLEKEERFLKPDVRLSRGSIDREDGSLQGPIGNQHIYQPVGKPDPAAPPKKPPRPGAPGHLGSLASLSSPADSYNEGVKLQPQEISPPPTANLDRSNDKVYENVTGLVKAVIEMSSKIQPAPPEEYVPMVKEVGLALRTLLATVDETIPLLPASTHREIEMAQKLLNSDLGELINKMKLAQQYVMTSLQQEYKKQMLTAAHALAVDAKNLLDVIDQARLKMLGQTRPH
B9: ZAP70 (protein)
chain: MPDPAAHLPFFYGSISRAEAEEHLKLAGMADGLFLLRQCLRSLGGYVLSLVHDVRFHHFPIERQLNGTYAIAGGKAHCGPAELCEFYSRDPDGLPCNLRKPCNRPSGLEPQPGVFDCLRDAMVRDYVRQTWKLEGEALEQAIISQAPQVEKLIATTAHERMPWYHSSLTREEAERKLYSGAQTDGKFLLRPRKEQGTYALSLIYGKTVYHYLISQDKAGKYCIPEGTKFDTLWQLVEYLKLKADGLIYCLKEACPNSSASNASGAAAPTLPAHPSTLTHPQRRIDTLNSDGYTPEPARITSPDKPRPMPMDTSVYESPYSDPEELKDKKLFLKRDNLLIADIELGCGNFGSVRQGVYRMRKKQIDVAIKVLKQGTEKADTEEMMREAQIMHQLDNPYIVRLIGVCQAEALMLVMEMAGGGPLHKFLVGKREEIPVSNVAELLHQVSMGMKYLEEKNFVHRDLAARNVLLVNRHYAKISDFGLSKALGADDSYYTARSAGKWPLKWYAPECINFRKFSSRSDVWSYGVTMWEALSYGQKPYKKMKGPEVMAFIEQGKRMECPPECPPELYALMSDCWIYKWEDRPDFLTVEQRMRACYYSLASKVEGPPGSTQKAEAACA
B10: EPHA2 (protein)
chain: HRRRKNQRARQSPEDVYFSKSEQLKPLKTYVDPHTYEDPNQAVLKFTTEIHPSCVTRQKVIGAGEFGEVYKGMLKTSSGKKEVPVAIKTLKAGYTEKQRVDFLGEAGIMGQFSHHNIIRLEGVISKYKPMMIITEYMENGALDKFLREKDGEFSVLQLVGMLRGIAAGMKYLANMNYVHRDLAARNILVNSNLVCKVSDFGLSRVLEDDPEATYTTSGGKIPIRWTAPEAISYRKFTSASDVWSFGIVMWEVMTYGERPYWELSNHEVMKAINDGFRLPTPMDCPSAIYQLMMQCWQQERARRPKFADIVSILDKLIRAPDSLKTLADFDPRVSIRLPSTSGSEGVPFRTVSEWLESIKMQQYTEHFMAAGYTAIEKVVQMTNDDIKRIGVRLPGHQKRIAYSLLGLKDQVNTVGIPI

Target: T1, Bovine, dephosphorylated, Myelin Basic Protein (MBP), P02687
T1 chain: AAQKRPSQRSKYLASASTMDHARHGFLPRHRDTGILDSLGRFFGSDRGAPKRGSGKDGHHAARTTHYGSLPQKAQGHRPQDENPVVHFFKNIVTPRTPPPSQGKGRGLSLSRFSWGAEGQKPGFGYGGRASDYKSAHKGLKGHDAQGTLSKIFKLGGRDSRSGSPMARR

Row | Protein | MBP Kinase Activity
1 | B1 | Negative
2 | B2 | Strong
3 | B3 | Strong
4 | B4 | Strong
5 | B5 | Strong
6 | B6 | Weak
7 | B7 | Negative
8 | B8 | Negative
9 | B9 | Negative
10 | B10 | Weak
